Data taken from patent US20210238260.

B1: FIXa-Y155F/K247N/N249S/R318Y/R403E/E410N (protein)
chain 1: YNSGKLEEFVQGNLERECMEEKCSFEEAREVFENTERTTEFWKQYVDGDQCESNPCLNGGSCKDDINSYECWCPFGFEGKNCELDVTCNIKNGRCEQFCKNSADNKVVCSCTEGYRLAENQKSCEPAVPFPCGRVSVSQTSKLTR
chain 2: VVGGEDAKPGQFPWQVVLNGKVDAFCGGSIVNEKWIVTAAHCVETGVKITVVAGEHNIEETEHTEQNRSVIRIIPHHNYNAAINKYNHDIALLELDEPLVLNSYVTPICIADKEYTNIFLKFGSGYVSGWGRVFHKGYSALVLQYLRVPLVDRATCLRSTKFTIYNNMFCAGFHEGGRDSCQGDSGGPHVTEVEGTSFLTGIISWGEECAMKGKYGIYTKVSEYVNWIKNKTKLT
B2: FIXa-K247N/N249S/R318Y/R403E/E410N (protein)
chain 1: YNSGKLEEFVQGNLERECMEEKCSFEEAREVFENTERTTEFWKQYVDGDQCESNPCLNGGSCKDDINSYECWCPFGFEGKNCELDVTCNIKNGRCEQFCKNSADNKVVCSCTEGYRLAENQKSCEPAVPFPCGRVSVSQTSKLTR
chain 2: VVGGEDAKPGQFPWQVVLNGKVDAFCGGSIVNEKWIVTAAHCVETGVKITVVAGEHNIEETEHTEQNRSVIRIIPHHNYNAAINKYNHDIALLELDEPLVLNSYVTPICIADKEYTNIFLKFGSGYVSGWGRVFHKGYSALVLQYLRVPLVDRATCLRSTKFTIYNNMFCAGFHEGGRDSCQGDSGGPHVTEVEGTSFLTGIISWGEECAMKGKYGIYTKVSEYVNWIKNKTKLT
B3: FIXa-Y155F/K247N/N249S/R338E/R403E/E410N (protein)
chain 1: YNSGKLEEFVQGNLERECMEEKCSFEEAREVFENTERTTEFWKQYVDGDQCESNPCLNGGSCKDDINSYECWCPFGFEGKNCELDVTCNIKNGRCEQFCKNSADNKVVCSCTEGYRLAENQKSCEPAVPFPCGRVSVSQTSKLTR
chain 2: VVGGEDAKPGQFPWQVVLNGKVDAFCGGSIVNEKWIVTAAHCVETGVKITVVAGEHNIEETEHTEQNRSVIRIIPHHNYNAAINKYNHDIALLELDEPLVLNSYVTPICIADKEYTNIFLKFGSGYVSGWGRVFHKGRSALVLQYLRVPLVDRATCLESTKFTIYNNMFCAGFHEGGRDSCQGDSGGPHVTEVEGTSFLTGIISWGEECAMKGKYGIYTKVSEYVNWIKNKTKLT
B4: FIXa-K247N/N249S/R338E/R403E/E410N (protein)
chain 1: YNSGKLEEFVQGNLERECMEEKCSFEEAREVFENTERTTEFWKQYVDGDQCESNPCLNGGSCKDDINSYECWCPFGFEGKNCELDVTCNIKNGRCEQFCKNSADNKVVCSCTEGYRLAENQKSCEPAVPFPCGRVSVSQTSKLTR
chain 2: VVGGEDAKPGQFPWQVVLNGKVDAFCGGSIVNEKWIVTAAHCVETGVKITVVAGEHNIEETEHTEQNRSVIRIIPHHNYNAAINKYNHDIALLELDEPLVLNSYVTPICIADKEYTNIFLKFGSGYVSGWGRVFHKGRSALVLQYLRVPLVDRATCLESTKFTIYNNMFCAGFHEGGRDSCQGDSGGPHVTEVEGTSFLTGIISWGEECAMKGKYGIYTKVSEYVNWIKNKTKLT
B5: FIXa variant R318Y/R403E/E410N (protein)
chain 1: YNSGKLEEFVQGNLERECMEEKCSFEEAREVFENTERTTEFWKQYVDGDQCESNPCLNGGSCKDDINSYECWCPFGFEGKNCELDVTCNIKNGRCEQFCKNSADNKVVCSCTEGYRLAENQKSCEPAVPFPCGRVSVSQTSKLTR
chain 2: VVGGEDAKPGQFPWQVVLNGKVDAFCGGSIVNEKWIVTAAHCVETGVKITVVAGEHNIEETEHTEQKRNVIRIIPHHNYNAAINKYNHDIALLELDEPLVLNSYVTPICIADKEYTNIFLKFGSGYVSGWGRVFHKGYSALVLQYLRVPLVDRATCLRSTKFTIYNNMFCAGFHEGGRDSCQGDSGGPHVTEVEGTSFLTGIISWGEECAMKGKYGIYTKVSEYVNWIKNKTKLT
B6: FIXa variant Y155F/R318Y/R403E/E410N (protein)
chain 1: YNSGKLEEFVQGNLERECMEEKCSFEEAREVFENTERTTEFWKQYVDGDQCESNPCLNGGSCKDDINSYECWCPFGFEGKNCELDVTCNIKNGRCEQFCKNSADNKVVCSCTEGYRLAENQKSCEPAVPFPCGRVSVSQTSKLTR
chain 2: VVGGEDAKPGQFPWQVVLNGKVDAFCGGSIVNEKWIVTAAHCVETGVKITVVAGEHNIEETEHTEQKRNVIRIIPHHNYNAAINKYNHDIALLELDEPLVLNSYVTPICIADKEYTNIFLKFGSGYVSGWGRVFHKGYSALVLQYLRVPLVDRATCLRSTKFTIYNNMFCAGFHEGGRDSCQGDSGGPHVTEVEGTSFLTGIISWGEECAMKGKYGIYTKVSEYVNWIKNKTKLT
B7: FIXa variant R318Y/R338E/R403E/E410N (protein)
chain 1: YNSGKLEEFVQGNLERECMEEKCSFEEAREVFENTERTTEFWKQYVDGDQCESNPCLNGGSCKDDINSYECWCPFGFEGKNCELDVTCNIKNGRCEQFCKNSADNKVVCSCTEGYRLAENQKSCEPAVPFPCGRVSVSQTSKLTR
chain 2: VVGGEDAKPGQFPWQVVLNGKVDAFCGGSIVNEKWIVTAAHCVETGVKITVVAGEHNIEETEHTEQKRNVIRIIPHHNYNAAINKYNHDIALLELDEPLVLNSYVTPICIADKEYTNIFLKFGSGYVSGWGRVFHKGYSALVLQYLRVPLVDRATCLESTKFTIYNNMFCAGFHEGGRDSCQGDSGGPHVTEVEGTSFLTGIISWGEECAMKGKYGIYTKVSEYVNWIKNKTKLT
B8: FIXa variant A103N/N105S/R318Y/R338E/R403E/E410N (protein)
chain 1: YNSGKLEEFVQGNLERECMEEKCSFEEAREVFENTERTTEFWKQYVDGDQCESNPCLNGGSCKDDINSYECWCPFGFEGKNCELDVTCNIKNGRCEQFCKNSNDSKVVCSCTEGYRLAENQKSCEPAVPFPCGRVSVSQTSKLTR
chain 2: VVGGEDAKPGQFPWQVVLNGKVDAFCGGSIVNEKWIVTAAHCVETGVKITVVAGEHNIEETEHTEQKRNVIRIIPHHNYNAAINKYNHDIALLELDEPLVLNSYVTPICIADKEYTNIFLKFGSGYVSGWGRVFHKGYSALVLQYLRVPLVDRATCLESTKFTIYNNMFCAGFHEGGRDSCQGDSGGPHVTEVEGTSFLTGIISWGEECAMKGKYGIYTKVSEYVNWIKNKTKLT
B9: FIXa variant D104N/K106S/R318Y/R338E/R403E/E410N (protein)
chain 1: YNSGKLEEFVQGNLERECMEEKCSFEEAREVFENTERTTEFWKQYVDGDQCESNPCLNGGSCKDDINSYECWCPFGFEGKNCELDVTCNIKNGRCEQFCKNSANNSVVCSCTEGYRLAENQKSCEPAVPFPCGRVSVSQTSKLTR
chain 2: VVGGEDAKPGQFPWQVVLNGKVDAFCGGSIVNEKWIVTAAHCVETGVKITVVAGEHNIEETEHTEQKRNVIRIIPHHNYNAAINKYNHDIALLELDEPLVLNSYVTPICIADKEYTNIFLKFGSGYVSGWGRVFHKGYSALVLQYLRVPLVDRATCLESTKFTIYNNMFCAGFHEGGRDSCQGDSGGPHVTEVEGTSFLTGIISWGEECAMKGKYGIYTKVSEYVNWIKNKTKLT
B10: FIXa variant Y155F/R318Y/R338E/R403E/E410N (protein)
chain 1: YNSGKLEEFVQGNLERECMEEKCSFEEAREVFENTERTTEFWKQYVDGDQCESNPCLNGGSCKDDINSYECWCPFGFEGKNCELDVTCNIKNGRCEQFCKNSADNKVVCSCTEGYRLAENQKSCEPAVPFPCGRVSVSQTSKLTR
chain 2: VVGGEDAKPGQFPWQVVLNGKVDAFCGGSIVNEKWIVTAAHCVETGVKITVVAGEHNIEETEHTEQKRNVIRIIPHHNYNAAINKYNHDIALLELDEPLVLNSYVTPICIADKEYTNIFLKFGSGYVSGWGRVFHKGYSALVLQYLRVPLVDRATCLESTKFTIYNNMFCAGFHEGGRDSCQGDSGGPHVTEVEGTSFLTGIISWGEECAMKGKYGIYTKVSEYVNWIKNKTKLT
B11: FIXa variant A103N/N105S/Y155F/R318Y/R338E/R403E/E410N (protein)
chain 1: YNSGKLEEFVQGNLERECMEEKCSFEEAREVFENTERTTEFWKQYVDGDQCESNPCLNGGSCKDDINSYECWCPFGFEGKNCELDVTCNIKNGRCEQFCKNSNDSKVVCSCTEGYRLAENQKSCEPAVPFPCGRVSVSQTSKLTR
chain 2: VVGGEDAKPGQFPWQVVLNGKVDAFCGGSIVNEKWIVTAAHCVETGVKITVVAGEHNIEETEHTEQKRNVIRIIPHHNYNAAINKYNHDIALLELDEPLVLNSYVTPICIADKEYTNIFLKFGSGYVSGWGRVFHKGYSALVLQYLRVPLVDRATCLESTKFTIYNNMFCAGFHEGGRDSCQGDSGGPHVTEVEGTSFLTGIISWGEECAMKGKYGIYTKVSEYVNWIKNKTKLT
B12: FIXa variant D104N/K106S/Y155F/R318Y/R338E/R403E/E410N (protein)
chain 1: YNSGKLEEFVQGNLERECMEEKCSFEEAREVFENTERTTEFWKQYVDGDQCESNPCLNGGSCKDDINSYECWCPFGFEGKNCELDVTCNIKNGRCEQFCKNSANNSVVCSCTEGYRLAENQKSCEPAVPFPCGRVSVSQTSKLTR
chain 2: VVGGEDAKPGQFPWQVVLNGKVDAFCGGSIVNEKWIVTAAHCVETGVKITVVAGEHNIEETEHTEQKRNVIRIIPHHNYNAAINKYNHDIALLELDEPLVLNSYVTPICIADKEYTNIFLKFGSGYVSGWGRVFHKGYSALVLQYLRVPLVDRATCLESTKFTIYNNMFCAGFHEGGRDSCQGDSGGPHVTEVEGTSFLTGIISWGEECAMKGKYGIYTKVSEYVNWIKNKTKLT
B13: FIXa variant D203N/F205T/R318Y/E410N (protein)
chain 1: YNSGKLEEFVQGNLERECMEEKCSFEEAREVFENTERTTEFWKQYVDGDQCESNPCLNGGSCKDDINSYECWCPFGFEGKNCELDVTCNIKNGRCEQFCKNSADNKVVCSCTEGYRLAENQKSCEPAVPFPCGRVSVSQTSKLTR
chain 2: VVGGEDAKPGQFPWQVVLNGKVNATCGGSIVNEKWIVTAAHCVETGVKITVVAGEHNIEETEHTEQKRNVIRIIPHHNYNAAINKYNHDIALLELDEPLVLNSYVTPICIADKEYTNIFLKFGSGYVSGWGRVFHKGYSALVLQYLRVPLVDRATCLRSTKFTIYNNMFCAGFHEGGRDSCQGDSGGPHVTEVEGTSFLTGIISWGEECAMKGKYGIYTKVSRYVNWIKNKTKLT
B14: FIXa-D104N/K106S/Y155F/K247N/N249S/R318Y/R338E/R403E/E410N (protein)
chain 1: YNSGKLEEFVQGNLERECMEEKCSFEEAREVFENTERTTEFWKQYVDGDQCESNPCLNGGSCKDDINSYECWCPFGFEGKNCELDVTCNIKNGRCEQFCKNSANNSVVCSCTEGYRLAENQKSCEPAVPFPCGRVSVSQTSKLTR
chain 2: VVGGEDAKPGQFPWQVVLNGKVDAFCGGSIVNEKWIVTAAHCVETGVKITVVAGEHNIEETEHTEQNRSVIRIIPHHNYNAAINKYNHDIALLELDEPLVLNSYVTPICIADKEYTNIFLKFGSGYVSGWGRVFHKGYSALVLQYLRVPLVDRATCLESTKFTIYNNMFCAGFHEGGRDSCQGDSGGPHVTEVEGTSFLTGIISWGEECAMKGKYGIYTKVSEYVNWIKNKTKLT

Factor X (FX), P00742, sequence (P00742 whole entry, looked up): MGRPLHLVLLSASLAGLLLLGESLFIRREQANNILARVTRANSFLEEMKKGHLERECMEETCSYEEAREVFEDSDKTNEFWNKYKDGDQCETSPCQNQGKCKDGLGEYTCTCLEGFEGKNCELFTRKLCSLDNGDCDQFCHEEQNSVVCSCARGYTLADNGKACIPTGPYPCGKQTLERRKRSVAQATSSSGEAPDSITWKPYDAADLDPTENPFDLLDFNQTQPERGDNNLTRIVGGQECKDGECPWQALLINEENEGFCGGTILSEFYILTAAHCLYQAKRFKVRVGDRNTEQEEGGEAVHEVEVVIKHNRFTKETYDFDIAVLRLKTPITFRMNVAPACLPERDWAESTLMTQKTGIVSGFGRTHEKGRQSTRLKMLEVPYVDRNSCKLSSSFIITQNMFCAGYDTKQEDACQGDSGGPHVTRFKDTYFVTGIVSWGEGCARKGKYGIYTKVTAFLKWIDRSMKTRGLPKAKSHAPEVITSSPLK
Factor X, P00742, sequence (P00742 whole entry, looked up): as above

Protein | % of WT kcat/KM (Factor X, P00742) [%] | kcat (Factor X, P00742) [s⁻¹] | kcat/KM (Factor X, P00742) [M⁻¹ s⁻¹] | % of WT kcat/KM (Factor X (FX), P00742) [%] | kcat/KM (Factor X (FX), P00742) [M⁻¹ s⁻¹]
B1 | 22 | 1.2 | 1e+07 | – | –
B2 | 58 | 2.9 | 2.7e+07 | – | –
B3 | 229 | 5 | 1.1e+08 | – | –
B4 | 422 | 4.8 | 1.9e+08 | – | –
B5 | – | – | – | 54 | 2.5e+07
B6 | – | – | – | 78 | 3.6e+07
B7 | – | – | – | 320 | 1.5e+08
B8 | – | – | – | 318 | 1.5e+08
B9 | – | – | – | 366 | 1.7e+08
B10 | – | – | – | 406 | 1.9e+08
B11 | – | – | – | 274 | 1.3e+08
B12 | – | – | – | 382 | 1.8e+08
B13 | – | – | – | 85 | 3.9e+07
B14 | – | – | – | 292 | 1.3e+08
